# Results reported in paper PMC3637500.
# B1: Myc-tagged full-length Gab1 (wild type) [mouse] / GST-PTP1B-D181A (substrate-trapping mutant of PTP1B, GST fusion protein) [mouse] (parent)
# chain 1: MSGGEVVCSGWLRKSPPEKKLKRYAWKRRWFVLRSGRLTGDPDVLEYYKNDHAKKPIRIIDLNLCQQVDAGLTFNKKEFENSYIFDINTIDRIFYLVADSEEDMNKWVRCICDICGFNPTEEDPVKPLTGSSQAPVDSPFAISTAPASSQMEASSVALPPPYQVISLPPHPDTLGLQDDPQDYLLLINCQSKKPEPNRTLFDSAKPTFSETDCNDNVPSHQTPASSQSKHGMNGFFQQQMMYDCPPSRLTSVSGESSLYNLPRSYSHDVLPKESPSSTEADGELYTFNTPSGTAGVETQMRHVSISYDIPPTPGNTYQIPRTFPESTLGQSSKLDTIPDIPPPRPPKPHPTHDRSPVETCGVPRTASDTDSSYCIPPPAGMTPSRSNTISTVDLNKLRKDASSQDCYDIPRTFPSDRSSSLEGFHSQYKIKSVLTAGGVSGEELDENYVPMNPNSPPRQHSGSFTEPIQEPNYVPMTPGTFDFSSFGMQVPPPAHMGFRSSPKTPPRRPVPVADCEPPPVDRNLKPDRKVKPAPLDIKPLSEWEELQAPVRSPITRSFARDSSRFPMSPRPDSVHSTTSSSDSHDSEENYVPMNPNLSGEDPNLFASNSLDGGSSPMNKPKGDKQVEYLDLDLDSGKSTPPRKQKSSGSGSSMADERVDYVVVDQQKTLALKSTREAWTDGRQSTESETPTKNVK
# chain 2: MEMEKEFEEIDKAGNWAAIYQDIRHEASDFPCKVAKLPKNKNRNRYRDVSPFDHSRIKLHQEDNDYINASLIKMEEAQRSYILTQGPLPNTCGHFWEMVWEQKSRGVVMLNRIMEKGSLKCAQYWPQQEEKEMVFDDTGLKLTLISEDVKSYYTVRQLELENLTTKETREILHFHYTTWPAFGVPESPASFLNFLFKVRESGSLSLEHGPIVVHCSAGIGRSGTFCLADTCLLLMDKRKDPSSVDIKKVLLEMRRFRMGLIQTADQLRFSYLAVIEGAKFIMGDSSVQDQWKELSREDLDLPPEHVPPPPRPPKRTLEPHNGKCKELFSSHQWVSEETCGDEDSLAREEGRAQSSAMHSVSSMSPDTEVRRRMVGGGLQSAQASVPTEEELSSTEEEHKAHWPSHWKPFLVNVCMATLLATGAYLCYRVCFH
# Variants of: B1
# Experiment: GST pull-down, anti-Myc immunoblot densitometry
# Settings: with GST-PTP1B-D181A (substrate-trapping mutant of PTP1B, GST fusion protein) [mouse]; Gab1 expressed in HEK-293 T cells, pervanadate treatment; normalized to lysate loading control; parent: 100; read off a plot
row,Variant,percent of parent [%]
1,chain 1 Y285F,180
2,chain 1 Y373F,200
3,chain 1 Y407F,160
4,chain 1 Y448F,170
5,chain 1 Y473F,270
6,chain 1 Y590F,310
7,chain 1 Y628F,240
8,chain 1 Y660F,150
